Measurements reported in article PMC4783868 (Nature, 2015).

Target: T1, PB2 subunit of the influenza C/Johannesburg/1/1966 virus polymerase (FluPolC) (influenza C/Johannesburg/1/1966 virus, UniProt Q9IMP3)
T1 sequence: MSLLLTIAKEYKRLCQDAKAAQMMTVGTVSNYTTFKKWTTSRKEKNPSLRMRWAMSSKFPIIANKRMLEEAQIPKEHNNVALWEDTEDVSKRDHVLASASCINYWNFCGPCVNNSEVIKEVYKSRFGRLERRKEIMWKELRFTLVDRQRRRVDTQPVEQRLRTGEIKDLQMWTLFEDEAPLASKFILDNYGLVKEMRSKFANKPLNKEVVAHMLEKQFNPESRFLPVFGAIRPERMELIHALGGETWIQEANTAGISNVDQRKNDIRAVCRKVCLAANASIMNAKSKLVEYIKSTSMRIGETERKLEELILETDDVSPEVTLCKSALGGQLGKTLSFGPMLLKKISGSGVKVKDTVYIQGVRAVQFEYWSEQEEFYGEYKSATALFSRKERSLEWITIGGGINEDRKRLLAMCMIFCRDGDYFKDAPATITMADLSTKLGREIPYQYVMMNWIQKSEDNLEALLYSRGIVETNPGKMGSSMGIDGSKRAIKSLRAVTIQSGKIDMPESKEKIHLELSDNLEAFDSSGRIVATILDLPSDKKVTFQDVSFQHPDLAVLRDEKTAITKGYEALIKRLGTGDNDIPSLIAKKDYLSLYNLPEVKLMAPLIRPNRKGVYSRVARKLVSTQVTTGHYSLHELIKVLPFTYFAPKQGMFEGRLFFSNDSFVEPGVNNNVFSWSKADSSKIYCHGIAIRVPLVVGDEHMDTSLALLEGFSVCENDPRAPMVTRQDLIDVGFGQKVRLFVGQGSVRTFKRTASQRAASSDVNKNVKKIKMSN
Test: crystal structure

| Binder | binding result |
| --- | --- |
| PB1 subunit of the influenza C/Johannesburg/1/1966 virus polymerase (FluPolC) (natural protein) MEINPYLMFLNNDVTSLISTTYPYTGPPPMSHGSSTKYTLETIKRTYDYSRTSVEKTSKVFNIPRRKFCNCLEDKDELVKPTGNVDISSLLGLAEMMEKRMGEGFFKHCVMEAETEILKMHFSRLTEGRQTYDWTSERNMPAATALQLTVDAIKETEGPFKGTTMLEYCNKMIEMLDWKEIKFKKVKTVVRREKDKRSGKEIKTKVPVMGIDSIKHDEFLIRALTINTMAKDGERGKLQRRAIATPGMIVRPFSKIVETVAQKICEKLKESGLPVGGNEKKAKLKTTVTSLNARMNSDQFAVNITGDNSKWNECQQPEAYLALLAYITKDSSDLMKDLCSVAPVLFCNKFVKLGQGIRLSNKRKTKEVIIKAEKMGKYKNLMREEYKNLFEPLEKYIQKDVCFLPGGMLMGMFNMLSTVLGVSTLCYMDEELKAKGCFWTGLQSSDDFVLFAVASNWSNIHWTIRRFNAVCKLIGINMSLEKSYGSLPELFEFTSMFFDGEFVSNLAMELPAFTTAGVNEGVDFTAAMSIIKTNMINNSLSPSTALMALRICLQEFRATYRVHPWDSRVKGGRMKIINEFIKTIENKDGLLIADGGKLMNNISTLHIPEEVLKFEKMDEQYRNRVFNPKNPFTNFDKTIDIFRAHGPIRVEENEAVVSTHSFRTRANRTLLNTDMRAMMAEEKRYQMVCDMFKSVFESADINPPIGAMSIGEAIEEKLLERAKMKRDIGAIEDSEYEEIKDIIRDAKKARLESR | binds |
| P3 subunit of the influenza C/Johannesburg/1/1966 virus polymerase (FluPolC) (natural protein) MSKTFAEIAEAFLEPEAVRIAKEAVEEYGDHERKIIQIGIHFQVCCMFCDEYLSTNGSDRFVLIEGRKRGTAVSLQNELCKSYDLEPLPFLCDIFDREEKQFVEIGITRKADDSYFQSKFGKLGNSCKIFVFSYDGRLDKNCEGPMEEQKLRIFSFLATAADFLRKENMFNEIFLPDNEETIIEMKKGKTFLELRDESVPLPFQTYEQMKDYCEKFKGNPRELASKVSQMQSNIKLPIKHYEQNKFRQIRLPKGPMAPYTHKFLMEEAWMFTKISDPERSRAGEILIDFFKKGNLSAIRPKDKPLQGKYPIHYKNLWNQIKAAIADRTMVINENDHSEFLGGIGRASKKIPEISLTQDVITTEGLKQSENKLPEPRSFPRWFNAEWMWAIKDSDLTGWVPMAEYPPADNELEDYAEHLNKTMEGVLQGTNCAREMGKCILTVGALMTECRLFPGKIKVVPIYARSKERKSMQEGLPVPSEMDCLFGICVKSKSHLNKDDGMYTIITFEFSIREPNLEKHQKYTVFEAGHTTVRMKKGESVIGREVPLYLYCRTTALSKIKNDWLSKARRCFITTMDTVETICLRESAKAEENLVEKTLNEKQMWIGKKNGELIAQPLREALRVQLVQQFYFCIYNDSQLEGFCNEQKKILMALEGDKKNKSSFGFNPEGLLEKIEECLINNPMCLFMAQRLNELVIEASKRGAKFFKTD | binds |
